Data on 52 sequences can be found in the supplement of paper PMC10567573.

This data set is described as follows: protein stability index of a GFP-peptide fusion (GPS, HEK-293T) (PSI 1-6); higher = more stable.
Setting [1] is: treatment: DMSO, c terminus: a fixed tail appended.
[2] abbreviates: treatment: MLN4924 1 uM, 8 h, c terminus: a fixed tail appended.

± gives the standard deviation.
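Note: 24-mer peptide tiles fused after GFP, lentivirally expressed, FACS-sorted into six equal bins by GFP/DsRed ratio, decoded by Illumina sequencing, PSI is the read-weighted mean bin number.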

On to SSSSSSSSSSSASSSASSSFSEEG [NFE2L1], for which the protein stability index is, setting by setting: under setting [1], 5.43 ± 0.33; under setting [2], 5.38 ± 0.23.
In the case of SSTTILVQWKEPEEPNGQIQGYRV [PTPRD], the protein stability index reads like this: under setting [1], 2.91 ± 0.32; under setting [2], 2.71 ± 0.46.
Turning to STCFERPCFKWYTSPWSECTKTCG [ADAMTSL2], the protein stability index was determined as 2.47 ± 0.64 under setting [1] and 2.75 ± 0.57 under setting [2].
STSDSDLTCDSSTSSSDDDEEVSG [C18orf25]: the protein stability index came to 5.22 ± 0.21 under setting [1] and 5.28 ± 0.13 under setting [2].
STSFLPELSSVHPPHYFFTYRIRI [FBXO3] yielded a protein stability index under setting [1] of 2.66 ± 0.33 and a protein stability index under setting [2] of 2.85 ± 0.48.
SVDWLSQSSCSGPTHTPRPADFSL [VENTX] came in with a protein stability index under setting [1] of 3.21 ± 0.25 and a protein stability index under setting [2] of 3.28 ± 0.15.
With SVVCRELGFGSAKEAVTGSRLGQG [LOXL2], the protein stability index runs as follows: under setting [1], 3.69 ± 0.41; under setting [2], 4.12 ± 0.44.
In the same order, the values of SWGIAGETELALVKESGERKVTDS [DLC1] are 5.14 ± 0.3 and 5.46 ± 0.19.
In the case of SYRPAYDQGGPVEILPFLYLGSAY [DUSP5], the protein stability index runs as follows: under setting [1], 2.08 ± 0.33; under setting [2], 2.18 ± 0.32.
SYRSFHSGGYGQDALGMDPMMEHE [CTNNB1]: the protein stability index runs as follows: under setting [1], 4.29 ± 0.2; under setting [2], 4.21 ± 0.25.
On to TAAPPPPPPSRPSVAVPPPPPNRM [WASL], for which the protein stability index reads like this: under setting [1], 4.82 ± 0.3; under setting [2], 4.87 ± 0.2.
For the sequence TALHIACYNGQDAVVNELIDYGAN [ANKRD44], the protein stability index was 2.69 ± 0.27 under setting [1] and 2.86 ± 0.24 under setting [2].
The like results for TARVIIPLLKDEGFAVKALWGRTQ [GFOD1] were, in that order, 2.08 ± 0.32 and 2.27 ± 0.35.
In the same order, the values of TASTAPPVPATAPSPAPAVAAAAA [SNAP91] are 5.09 ± 0.19 and 5.08 ± 0.12.
Regarding TEAESEQEGSSGMELSWGQSPGQP [TEX19], the protein stability index under setting [1] amounted to 5.43 ± 0.24 and the protein stability index under setting [2] stood at 5.26 ± 0.25.
Turning to TEDELRVRHLEEENRGIVVLGINR [AUH], the protein stability index was 4.29 ± 0.15 under setting [1] and 4.33 ± 0.39 under setting [2].
As for TERDEIEDVKCQEDQKLQVLLTQI [TRIM15], the protein stability index came out at 4.34 ± 0.2 under setting [1] and 4.54 ± 0.12 under setting [2].
Regarding TFAMVKGYFFPTSARDCKFTGNFF [DHCR7], the protein stability index reads like this: under setting [1], 2.56 ± 0.39; under setting [2], 2.71 ± 0.43.
Turning to TFLKAFPLMGETQERERVLTHFSR [PSD2], the protein stability index reads like this: under setting [1], 2.45 ± 0.21; under setting [2], 2.63 ± 0.39.
The like results for TFLSRILTGLNYEAPKYHIPYWVA [NSDHL] were, in that order, 2.77 ± 0.67 and 3 ± 0.63.
In the same order, the values of TGQPLPQSIQQAMRYLRNHCLDQV [DLC1] are 2.36 ± 0.093 and 2.4 ± 0.22.
THFTFKDLHFKMFDVGGQRSERKK [GNAI1]: the protein stability index reads like this: under setting [1], 2.83 ± 0.33; under setting [2], 2.93 ± 0.15.
In the case of TIVKARDKLYHPECFMCSDCGLNL [PDLIM4], the protein stability index is, setting by setting: under setting [1], 2.19 ± 0.44; under setting [2], 2.42 ± 0.19.
The like results for TKEGGMLAYYEVCSWKGATKQRIQ [CHIT1] were, in that order, 2.26 ± 0.53 and 2.91 ± 0.65.
Turning to TKKRHTPRGHAESTSNRQPRKQG [SMOC2], the protein stability index is 2.59 ± 0.62 (treatment: DMSO, c terminus: native) and 3.3 ± 0.49 (treatment: MLN4924 1 uM, 8 h, c terminus: native).
Turning to TKLLNDEDQVVVNKAAVMVHQLSK [CTNNB1], the protein stability index runs as follows: under setting [1], 3.6 ± 0.19; under setting [2], 3.57 ± 0.4.
With TLLNPRMIVDVTPYMNPSPFTVSP [CLCN6], the protein stability index is 2.32 ± 0.079 under setting [1] and 2.25 ± 0.081 under setting [2].
In turn, TLTWDSGNPEPVSYYIIQHKPKNS [PTPRD] displayed a protein stability index under setting [1] of 2.69 ± 0.12 and a protein stability index under setting [2] of 3.05 ± 0.41.
Turning to TMAAKKNRQSSDKQNGRVAKVKGH [C18orf25], the protein stability index is 4.53 ± 0.25 under setting [1] and 4.58 ± 0.29 under setting [2].
Sequence TNLPIFKLKESTVRRRYSDFEWLR [SNX3] yielded a protein stability index under setting [1] of 2.62 ± 0.3 and a protein stability index under setting [2] of 2.53 ± 0.36.
Regarding TPAPMSSAWKTVACGGTRDQLFMQ [MYBL2], the protein stability index under setting [1] worked out at 2.75 ± 0.17 and the protein stability index under setting [2] was determined as 2.69 ± 0.3.
For the sequence TPGIDLTRVLAEMREQYEAMAERN [KRT13], the protein stability index reads like this: under setting [1], 4.13 ± 0.49; under setting [2], 4.4 ± 0.32.
In the same order, the values of TPINQNVSLHQASLGGCSQDFLLF [NFE2L1] are 1.99 ± 0.55 and 2.6 ± 0.58.
For TPVMEGYVEVKEGKTWKQICDKHW [LOXL2], the protein stability index reads like this: under setting [1], 3.28 ± 0.32; under setting [2], 3.51 ± 0.37.
In the case of TQKFTDMVATANNRQTFVNSAIRF [CHIT1], the protein stability index reads like this: under setting [1], 2.85 ± 0.32; under setting [2], 3.17 ± 0.33.
Take TQVLEDSEDSFCRRHPGLGKAFPS [TRAF3IP2]: the protein stability index under setting [1] amounted to 4.17 ± 0.35 and the protein stability index under setting [2] was 4.12 ± 0.39.
Turning to TRDYAPPSRGHAYRDYGHSRRDES [RBMY1A1], the protein stability index under setting [1] was 4.54 ± 0.4 and the protein stability index under setting [2] was determined as 4.61 ± 0.42.
With TRLAFELFAEEQAEGPNRLLYKDG [LPCAT4], the protein stability index came to 3.85 ± 0.19 under setting [1] and 4.02 ± 0.2 under setting [2].
Take TRNSPRGCRLPSISSTTCGRQLEK [SPATS1]: the protein stability index was 3.81 ± 0.26 under setting [1] and 4 ± 0.18 under setting [2].
For TRRSSYEDSSLPSINALLQAEVLS [HNF4A], the protein stability index is, setting by setting: under setting [1], 3.13 ± 0.22; under setting [2], 3.15 ± 0.31.
Consider TSASFGEESTPGQTNSETAVVALT [HDAC6], for which the protein stability index reads like this: under setting [1], 4.714 ± 0.027; under setting [2], 5.05 ± 0.19.
TSEESRPRLSQLSVTDVTTSSLRL [TNXB] showed a protein stability index under setting [1] of 4.18 ± 0.29 and a protein stability index under setting [2] of 4.24 ± 0.26.
Regarding TSIVQAAAGGVPGGGSNNGKTPVC [PDLIM7], the protein stability index reads like this: under setting [1], 4.63 ± 0.17; under setting [2], 4.81 ± 0.14.
As for TSLFMTPLDVVKVRLQSQRPSMAS [SLC25A39], the protein stability index reads like this: under setting [1], 2.69 ± 0.34; under setting [2], 3.02 ± 0.19.
TSLLDLISIPITGDTLRTFSLVLV [DYNC2LI1]: the protein stability index runs as follows: under setting [1], 2.76 ± 0.89; under setting [2], 2.51 ± 0.57.
In turn, TSWSQHCPWEPQKQPPWEFLQVLE [SPAG8] yielded a protein stability index under setting [1] of 2.31 ± 0.13 and a protein stability index under setting [2] of 2.55 ± 0.29.
In the case of TTIKRKREDDKLVVECVMKGVTST [FABP4], the protein stability index by setting is: under setting [1], 3.9 ± 0.52; under setting [2], 3.9 ± 0.19.
For TTLLKCYLHTNVALVAPLLRLENN [VPS39], the protein stability index reads like this: under setting [1], 2.68 ± 0.54; under setting [2], 2.77 ± 0.57.
On to TTPIEEVKGLFKSENCPKVISCEF [LARP4], for which the protein stability index by setting is: under setting [1], 2.9 ± 0.2; under setting [2], 2.82 ± 0.36.
Take TTQDLFAINRDTAFPGASHESSGN [RHOBTB3]: the protein stability index reads like this: under setting [1], 4.57 ± 0.51; under setting [2], 4.87 ± 0.15.
The like results for TVAIGAESEVYSWGKGARGRLGRR [NEK8] were, in that order, 4.08 ± 0.16 and 4.14 ± 0.15.
In the case of TVGLLWFAHHSLFLHVRKATRAMG [TMEM175], the protein stability index is, setting by setting: under setting [1], 2.46 ± 0.15; under setting [2], 2.42 ± 0.39.
